From the nanobody polyreactivity screen of Harvey et al. (2022)

Experiment: yeast display, Sf9 membrane polyspecificity reagent, FACS + sequencing; frameworks hold sequencing errors
Summary of the method: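 In a synthetic yeast display library (Saccharomyces cerevisiae BJ5465), nanobody expression was induced with galactose for 36–48 hours. FACS gates were set low and high (top ~1%) using anti-HA fluorescence for expression and streptavidin fluorescence for binding of the Sf9 membrane reagent. Each polyreactivity label is drawn from the gate of origin.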

Sequence	polyreactivity (PSR sort gate)
QVQLVESGGGLVQAGGSLRLSCAASGRILRFYAMGWYRQAPGKERELVATISRSGGSTYYADSVKGRFTISRDNAKNTVYLQMNSLKPEDTAVYYCNAFLYARQRDRWARYDYWGQGTQVTVSS	high polyreactivity
QVQLVESGGGLVQAGGSLRLSCAASGRTFAGYAMGWYRQAPGKERELVAGITTSGGITYYADSVKGRFTISRDNAKNTVYLQMNSLKPEDTAVYYCNTGYYGRLRDDYWGQGTQVTVSS	high polyreactivity
QVQLVESGGGLVQAGGSLRLSCAASGNIFDGYAMGWYRQAPGKEREMVAAITSSAGSTYYADSVKGRFTISRDNAKNTVYLQMNSLKPEDTAVYYCNKVTKYRPIEGSWGQGTQVTVSS	high polyreactivity
QVQLVESGGGLVQAGGSLRLSCAASGSIFHPNAMGWYRQAPGKERELVAAITQSGATTYYADSVKGRFTISRDNAKNTVYLQMNSLKPEDTAVYYCAAEFTYGHHDYWGQGTQVTVSS	low polyreactivity
QVHHVESAGGLVQAGASLRLSSAASGSTIYRYAMGWYRQTPGKERELVARIDWSDGSTNYADSVKGRFTISRDNAKNTVYLQMNSLKPEDTGVYYCASDTYYDTYDGEYEYWGQGTQVTVSS	low polyreactivity
QVQLEESGGGLVQAGGSLRLSCAASGRTFYTNAMGWYRQAPGKERELVAAISGRGSTYYADSVKGRFTISRDNAKNTVYLQMNSLKPEDTAVYYCAALLPGRSSSDYWGQGTLVTVSS	high polyreactivity
QVQLVESGGGLVQAGGSLRLSCAASGFIFGHYAMGWYRPAPGKERELVATIRRDPSRTYYADSVKGRFTISRDNAKNTVYLQMNSLKPEDTAVYYCATAQYIWGRSKYYYWGQGTQVTVSS	high polyreactivity
QVQLVESGGGLVQAGGSLRLSCAASGRTFNKYAMGWYTQAPGKERELVAAISTRGGSTYYADSVKGRFTISRDNAKNTVDLQMNSLKPEDTAVYYCAARLTTVGQGFDYWGQGTQVTVSS	high polyreactivity
QVHLVESGGGLVQAGASHRLSCAASGSISKSYAMGWYRQAPGKERELVAAISWRGGSTYADSVKGRFTISRDNAKNTVYLQMNSLKPEDTAVYYCAATNYGTFWVGQSERYDYWGQGTQVNVSS	low polyreactivity
QVQLVESGGGLVQAGGSLRLSCAASGITFGRNTMGWSRQAPGKERELVAAIDSGGNTYADSVKGRFTISRDNAKNTVYLQMNSLKPEDTAVYYCAVDGGEFSSYGYWGQGTQVTVSS	low polyreactivity
QVQLVESGGGLVQAGGSLRLSCAASGSTFGVYAMGWYRQAPGKERELVARITSGGSTYYADSVKGRFTITRDNAKKTVYLQRNSLKPEDTAVYYCAAVYRRTRSWKFDYWGQGTQVTVAS	high polyreactivity
QVQLVESGGGLVQAGGSLRLSCAASGYIFKSNVMGWYRQAPGKERELVAAISWSGGRTYYADSVKGRFTISRDNAKNTDYLQMNSLKPEDTAVYYCAAVGRQSNYYVDYDYWGQGTQVTVSS	high polyreactivity
QVQLVESGGGLVQAGGSLRLICAASGRIFRGYVMGWYRQAPGKERELVASIDRSGASTYYADSVKGRFTISRDNAKNTVYLQMNSLKPEDTAVYYCNALVYLRTSRYYYWGQGTQVTVSS	high polyreactivity
QVQLVESGGGLVQAVGSHRLSCAASGRIFGNNVMGWYRQEPGKERELVAANTFSGTSTYYADSVKGRFTISRDNAKNTVYLQMNSLKPEDTAVYYCAKYRYADYYSPGYDYWGQGTQVTVSS	low polyreactivity
QVQLVESGGGLVQAGGSLRLSCAASGRIIRTYSMGRYRQAPGKERELVAVISRRGGRTYYADSVKGRFTFSRDNAKNTVYVQINSLKPEDTAVYYCNADYSGGGGGYWGQGTLVTVSS	high polyreactivity
QVQLVESGGGLVQAGGSLRLSCAASGIIFGENAMGWYRQAPGKERELVAAINSVGSTYYADSVKGRFTISRDNAKNTVYLQMNSLKPEDTAVYYCNARLAKVRVKDDYWGQGTQVTVSS	low polyreactivity
QVQLVESGGGLVQAGGSLRFSCSASGSIFNYYTMGWYRQAPGKERELVAVITSGGSTYYADSVKGRFTISRDNAKNTVYLQMNSLKPEDTAVYYCAAKRRSYLKQGYSVGYWGQGSQVTVSS	high polyreactivity
QVQLVESGGGLVQAGRSLRLSCAASGFIILGNAMGWYRQAPGKERELVAAISSGGSTYADSVKGRFTISRDNAKNTVYLQMNSLKPEDTAVYYCAVDRAFRAQNYHEYDYWGQGTQVTVSS	low polyreactivity
QVQLVESGGGLVQAGGSLRLSCAASGSIFYQYAMGWYRQAPGKERELVARIRGSTGTTYYADSVKGRFTISRDNAKNTVYLQMNSLKPEDTAVYYCNAARYQGRSRFDYWGQGTQVTVSS	high polyreactivity
QVQLVESGGGLVQAGGSLRLSCAASGSIFGRNAMGWYREAPGKERVLVAAINSGGSTNYADSVKGRFTISRDNAKNTVYLQMNSLKPEDTAVYYCAARTYSSGRYYGYVAFYYWGQGTQVTVSS	high polyreactivity
QVQLVESGGGLVQAGGSLRLSCAASGFIFAYYAMGWYRQAPGKERELVAAISYNGGTTYYADSVKGRFTISRDNAKNTVYLQMNSLKPEDSAVYYCNALVHQTYYDYDYWGQGTQVTVSS	high polyreactivity
QVQLVESGGALVQAGGTLRLSGAASGIIFDGYAMGWYRQAPGKEREFVAVISSSGGTTYYADSVKGRFTISRDNAKNTVYLQMNRLKPEDSAVYYCACVYVSLWPSATYWSGFGYWGQGTKVTVSS	low polyreactivity

Sequence	polyreactivity (PSR sort gate)
QVQLVDSGGGLVQAGCSLRLSCAASGRTFSNYAMGWYRQAPGKDRELVAAISWRGGSTYYADSVKGRFTISRDNAKNTVYLQMTSLKPEDTAVYYCAALPRYALGEDYWGQGTQVTVSS	high polyreactivity
QVQLVESGRGLVQAGCSLRLSCAASGSILHYNAMGWYRQAPGKERELVASITNSGRTYYADSVKGRFTISRDNAKNTDYLHMNSLKPEDTAVYYCAAQGTWRYFGHRHNYWGQGTQVTVSS	high polyreactivity
QVQLVESGGGLVQAGGSLRLSCAASGRTFNRYAMGWYRQAPGKERELVAAISGGGSSTSYADSVKGRFTISRDNAKNTVYLQMNSLKPEDTAVYYCAAKYGALRYYNMYYWGQGTQVTVSS	low polyreactivity
QVQLHESGGGLVQEGGSQRLSCAASGNIFYTYAMRWYRHAPGKEREFDATINHGTSINYADSVKGRFTISRDNAKNTVYLQMNSLKPEDTAVYYCAADLSWTDNLFYWGQGTQVTVSS	low polyreactivity
QVQLVESGGGLVQAGGSLRLSCAASGSIIGVNAMGWYRQAPGKERELVAAISSTGGSTYYADSVKGRFTISRDNAKNTVYLQMNSLKPEDTAVYYCAAVLIDPDSNLETGGIFDYWGQGTQVTVSS	low polyreactivity
QVQLVESGGRLVQAGGSLRLTCAASGRIFSVNAMGWYRQAPGKERELVAAITPGASTNYADSVKGRFTISRDNAKNTVYLQMTSLKPEDTAVYYCAAGWVSFEDWVLGSYYEYDYWGQGTHVTVSS	low polyreactivity
QVQLVESGGGLVQAGGSLRLSCAASGFIFDYYAMGWYRQAPGKERELVAAITSRSGSTYYADSVKGRFTISRDNAKNTVYLQMNSLKPEDTAVYYCARRFKYGSTAWRFYYWGQGTQVSVSS	high polyreactivity
QVQLVESGGGLVQAGGSLRLICAASGFTFDYNAMGWYRPAPVKERELVAAISGSGGSTFYADSVKGRFTISRDNAKNTVYLQMNSLKPEDTAVYYCNVYQHDDDFDYWGQGTQVTVSS	low polyreactivity
QVQRVESGGGLVQAGGSLRLSCAASGSIFWRNAMGWSRQAPGKERELVAAITSGGSTDYADSVKGGFRISRDTAKNTVYLQIHSLKPEDPAVYYCAAVTWSGWDGYYYWGQGTQVTVSS	low polyreactivity
QVQLVESGGGLVQAGGSLRLISAASGSIFERYAMGWYRQAPGKERELVAAITWTGGSTYYADSVKGRFTISRDNAKNTVYLQMNSLKPEDTAVYYCAADYLYPLWGWYDYWGQGTQVTVSS	low polyreactivity
QVQLVESGGGLVQAGGSLRLSCAASGFTIVPYAMGWYRQAPGKERELVAAITSGGSTYYADSVKGRFTISRDNAKNTVYLQMNSLKPEDTAVYYCNRGRYRRRYTYSQYDYWGQGTQVTVSS	high polyreactivity
QVQLVESGGGLVQAGGSLRLSCAASGRNYRYAMGWYRQAPGKEWALVAAISSGGRTNYADSVKGRFTISRDNAKNTVYLQMNSLKPEDTAVYYCAAEAPFYVKGRRYRGYDYWGQGTQVTVSS	high polyreactivity
QVQLVESGGGLVQAGGSLRLSCAASGRTFQYNAMGWYRLAPGKERELVAAISSGGSTYYADSVKGRFSISRDNAKNTVYLQMNSLKPEDTAVYYCATYLAEYGYWGQGTQVTVSS	high polyreactivity
QVQLVESGGGLVQAGGSLRLSCAASGITFYVYDMGWYRQAPGKERELVAAISWSGGSTYYADSVKGRFTISRDNAKNTVYLQMNSLKPEDTAVYYCAAEVEYWYELYDYWGQGTQVTVSS	high polyreactivity
QVQLVESGGGLVQAGGSLRLSCAASGSTFEIYAMGWYRQAPGKERELVAAIDFSGGSTYYADSVKGRFTISRDNAKKTLYLQMNSLKPEDTAVYYCAVDSASDTIYDYWGQGTQVTVSS	low polyreactivity
QVQLVESGGGLVQAGGSLRLSCAASGRIFTVYAMGWYRQAPGKERELVAAISGRGGRTYYADSVKGRFTISRDNAKNTVYLQMNSLTPEDTAVYYCADYSYVRSSYEVEYDYWGQGTQVTVSS	low polyreactivity
QVQLVESGGGLVQAGGSLRLSCAASGSIFSSYAMGWYRQAPGKERELVAAITGRDGSTYYADSVKGRFTISRDNAKNTVYLQMNILKPEDTAVYYCAASRFYFPRTFGGYPKLASYDYWGQGTQVTVSS	low polyreactivity
QVQLVESGGGLVQAGGSLRLTCAASGSIFYYYAMGWYRQATGKERELVAAINSGVSTYYADSVKGRFTISRDNANNTVYLQMNSLKPDDTAVYYCAAPGHNLFGSWFSWTPDTYDYWGQGTQVTVSS	low polyreactivity
QVQLVEAGGRLVQAGGSLRLSCAASGSIFYRNAMGGYRQKPGKEMELVAVITRRGGRKYYADSVKGRITISRDNAKNTVYLQMNSLIPEDTAVFYCAKRGWSDYNPIDYWGQGTPVTVSS	low polyreactivity
QVQLVESGGVLVQAGGSLRLSCAASGYIFNKYVMGWYRPAPGKERELVAAISASGGSTYYADSVKGRFTLSRDNAKNTVYLQMNSLKPEDTAVYYCAATLYRRMDYWGQGTQVTVSS	high polyreactivity
QVQLVESGGGLVQAGGSLRLSCAASGSTFAGNAMGWYRQAPGKERELVAAIDSSTGSTYYADSVKGRFTISRDNAKNTVYLQMNSLKPEDTAVYYSNAEIYPIVKAGRQHPRRYDYWGQGTQVTVSS	low polyreactivity
